B1: Clone 40 (designed binder)
chain: MIPGGLSEAKPATPEIQEIVDKVKPQLEEKTGETYGKLEAVQYKTQVVKRRHFPQWQGTNYYIKVRAGDNKYMHLKVFKSLGDHLNQYPNEDLVLTGYQVDKNKDDELTGF
notes: His-tagged
B2: Clone 48 (designed binder)
chain: MIPGGLSEAKPATPEIQEIVDKVKPQLEEKTGETYGKLEAVQYKTQVVTRKHFPQYWGTNYYIKVRAGDNKYMHLKVFKSLNEPLPVTNIEDLVLTGYQVDKNKDDELTGF
notes: His-tagged
B3: Clone 175 (designed binder)
chain: MIPGGLSEAKPATPEIQEIVDKVKPQLEEKTGETYGKLEAVQYKTQVVWRRWFPQWPGTNYYIKVRAGDNKYMHLKVFKSLPEADADDPKEDLVLTGYQVDKNKDDELTGF
notes: His-tagged
B4: Clone 184 (designed binder)
chain: MIPGGLSEAKPATPEIQEIVDKVKPQLEEKTGETYGKLEAVQYKTQVVHRKHFHQFTGTNYYIKVRAGDNKYMHLKVFKSLSNDYYETYLEDLVLTGYQVDKNKDDELTGF
notes: His-tagged
B5: Clone 246 (designed binder)
chain: MIPGGLSEAKPATPEIQEIVDKVKPQLEEKTGETYGKLEAVQYKTQVVERFHFPQFPGTNYYIKVRAGDNKYMHLKVFKSLPHLDYIWNWEDLVLTGYQVDKNKDDELTGF
notes: His-tagged
B6: Clone 247 (designed binder)
chain: MIPGGLSEAKPATPEIQEIVDKVKPQLEEKTGETYGKLEAVQYKTQVVRREHFPRWPGTNYYIKVRAGDNKYMHLKVFKSLDLLLRKEEVEDLVLTGYQVDKNKDDELTGF
notes: His-tagged
B7: Clone 56 (designed binder)
chain: MIPGGLSEAKPATPEIQEIVDKVKPQLEEKTGETYGKLEAVQYKTQVVGGRHRWNWSGTNYYIKVRAGDNKYMHLKVFKSLFEPSGLAAEEDLVLTGYQVDKNKDDELTGF
notes: His-tagged
B8: Clone 77 (designed binder)
chain: MIPGGLSEAKPATPEIQEIVDKVKPQLEEKTGETYGKLEAVQYKTQVVWDRPRWGWTGTNYYIKVRAGDNKYMHLKVFKSLFKESSRNDEEDLVLTGYQVDKNKDDELTGF
notes: His-tagged
B9: Clone 84 (designed binder)
chain: MIPGGLSEAKPATPEIQEIVDKVKPQLEEKTGETYGKLEAVQYKTQVVLIRHLWSWSGTNYYIKVRAGDNKYMHLKVFKSLFEGENHQIDEDLVLTGYQVDKNKDDELTGF
notes: His-tagged
B10: Clone 86 (designed binder)
chain: MIPGGLSEAKPATPEIQEIVDKVKPQLEEKTGETYGKLEAVQYKTQVVDVRGQWAWTGTNYYIKVRAGDNKYMHLKVFKSLFQPRTKATEEDLVLTGYQVDKNKDDELTGF
notes: His-tagged
B11: Clone 149 (designed binder)
chain: MIPGGLSEAKPATPEIQEIVDKVKPQLEEKTGETYGKLEAVQYKTQVVKTLGVWHWSGTNYYIKVRAGDNKYMHLKVFKSLFEQHAENIEEDLVLTGYQVDKNKDDELTGF
notes: His-tagged
B12: Clone 194 (designed binder)
chain: MIPGGLSEAKPATPEIQEIVDKVKPQLEEKTGETYGKLEAVQYKTQVVEERRIWNWTGTNYYIKVRAGDNKYMHLKVFKSLFTASDTHPAEDLVLTGYQVDKNKDDELTGF
notes: His-tagged
B13: Clone 1 (designed binder)
chain: MIPGGLSEAKPATPEIQEIVDKVKPQLEEKTGETYGKLEAVQYKTQVVVYHVRWNYLGTNYYIKVRAGDNKYMHLKVFKSLSLEEPPVETEDLVLTGYQVDKNKDDELTGF
notes: His-tagged
B14: Clone 10 (designed binder)
chain: MIPGGLSEAKPATPEIQEIVDKVKPQLEEKTGETYGKLEAVQYKTQVVDDVKNGFVQGTNYYIKVRAGDNKYMHLKVFKSLIDRHVYWLEEDLVLTGYQVDKNKDDELTGF
notes: His-tagged
B15: Clone 101 (designed binder)
chain: MIPGGLSEAKPATPEIQEIVDKVKPQLEEKTGETYGKLEAVQYKTQVDHHHRFAKWWGTNYYIKVRAGDNKYMHLKVFKSLWFNENREDTEDLVLTGYQVDKNKDDELTGF
notes: His-tagged
B16: Clone 102 (designed binder)
chain: MIPGGLSEAKPATPEIQEIVDKVKPQLEEKTGETYGKLEAVQYKTQVDRKAAVVARHGTNYYIKVRAGDNKYMHLKVFKSLWPFLVIEKYEDLVLTGYQVDKNKDDELTGF
notes: His-tagged
B17: Clone 103 (designed binder)
chain: MIPGGLSEAKPATPEIQEIVDKVKPQLEEKTGETYGKLEAVQYKTQVDFSFPLVHWYGTNYYIKVRAGDNKYMHLKVFKSLRFRDGGHHVEDLVLTGYQVDKNKDDELTGF
notes: His-tagged
B18: Clone 95 (designed binder)
chain: MIPGGLSEAKPATPEIQEIVDKVKPQLEEKTGETYGKLEAVQYKTQVDTIHPQAKYWGTNYYIKVRAGDNKYMHLKVFKSLWKNLLKPIHEDLVLTGYQVDKNKDDELTGF
notes: His-tagged
B19: Clone 104 (designed binder)
chain: MIPGGLSEAKPATPEIQEIVDKVKPQLEEKTGETYGKLEAVQYKTQVDNAHPLVKNWGTNYYIKVRAGDNKYMHLKVFKSLWRNDTSSIYEDLVLTGYQVDKNKDDELTGF
notes: His-tagged
B20: Clone 105 (designed binder)
chain: MIPGGLSEAKPATPEIQEIVDKVKPQLEEKTGETYGKLEAVQYKTQVDETSENVIQWGTNYYIKVRAGDNKYMHLKVFKSLWPADILTQHEDLVLTGYQVDKNKDDELTGF
notes: His-tagged
B21: Clone 107 (designed binder)
chain: MIPGGLSEAKPATPEIQEIVDKVKPQLEEKTGETYGKLEAVQYKTQVDFTDIHWSTWGTNYYIKVRAGDNKYMHLKVFKSLIPAWQQIHVEDLVLTGYQVDKNKDDELTGF
notes: His-tagged
B22: Clone 108 (designed binder)
chain: MIPGGLSEAKPATPEIQEIVDKVKPQLEEKTGETYGKLEAVQYKTQVDREHASVKFWGTNYYIKVRAGDNKYMHLKVFKSLWLEATPHTQEDLVLTGYQVDKNKDDELTGF
notes: His-tagged
B23: Clone 109 (designed binder)
chain: MIPGGLSEAKPATPEIQEIVDKVKPQLEEKTGETYGKLEAVQYKTQVDISGVGLVPNGTNYYIKVRAGDNKYMHLKVFKSLNWNYPQQPFEDLVLTGYQVDKNKDDELTGF
notes: His-tagged
B24: Clone 11 (designed binder)
chain: MIPGGLSEAKPATPEIQEIVDKVKPQLEEKTGETYGKLEAVQYKTQVVEVQQQENFQGTNYYIKVRAGDNKYMHLKVFKSLHIYEHIVYREDLVLTGYQVDKNKDDELTGF
notes: His-tagged
B25: Clone 110 (designed binder)
chain: MIPGGLSEAKPATPEIQEIVDKVKPQLEEKTGETYGKLEAVQYKTQVDHTQPKALDWGTNYYIKVRAGDNKYMHLKVFKSLWGSILTDGPEDLVLTGYQVDKNKDDELTGF
notes: His-tagged
B26: Clone 112 (designed binder)
chain: MIPGGLSEAKPATPEIQEIVDKVKPQLEEKTGETYGKLEAVQYKTQVDRFYHQWHFLGTNYYIKVRAGDNKYMHLKVFKSLDLRAPRNDNEDLVLTGYQVDKNKDDELTGF
notes: His-tagged
B27: Clone 113 (designed binder)
chain: MIPGGLSEAKPATPEIQEIVDKVKPQLEEKTGETYGKLEAVQYKTQVDWVTRHHTLVGTNYYIKVRAGDNKYMHLKVFKSLPPFKHWHLEDLVLTGYQVDKNKDDELTGF
notes: His-tagged
B28: Clone 114 (designed binder)
chain: MIPGGLSEAKPATPEIQEIVDKVKPQLEEKTGETYGKLEAVQYKTQVDQSSDLAKLWGTNYYIKVRAGDNKYMHLKVFKSLWNLNSDKSSEDLVLTGYQVDKNKDDELTGF
notes: His-tagged
B29: Clone 115 (designed binder)
chain: MIPGGLSEAKPATPEIQEIVDKVKPQLEEKTGETYGKLEAVQYKTQVDRFYHQWHFLGTNYYIKVRAGDNKYMHLKVFKSLDLRAPRNDNEDLVLTGYQVDKNKDDELTGF
notes: His-tagged
B30: Clone 116 (designed binder)
chain: MIPGGLSEAKPATPEIQEIVDKVKPQLEEKTGETYGKLEAVQYKTQVDWVTRHHTLVGTNYYIKVRAGDNKYMHLKVFKSLPPFKHWHLEDLVLTGYQVDKNKDDELTGF
notes: His-tagged
B31: Clone 117 (designed binder)
chain: MIPGGLSEAKPATPEIQEIVDKVKPQLEEKTGETYGKLEAVQYKTQVDHEVRKTYEFGTNYYIKVRAGDNKYMHLKVFKSLWFGGWPLAQEDLVLTGYQVDKNKDDELTGF
notes: His-tagged
B32: Clone 118 (designed binder)
chain: MIPGGLSEAKPATPEIQEIVDKVKPQLEEKTGETYGKLEAVQYKTQVDVISIPLVWNGTNYYIKVRAGDNKYMHLKVFKSLIFQEYYPHREDLVLTGYQVDKNKDDELTGF
notes: His-tagged
B33: Clone 122 (designed binder)
chain: MIPGGLSEAKPATPEIQEIVDKVKPQLEEKTGETYGKLEAVQYKTQVDVIHIPHQWHGTNYYIKVRAGDNKYMHLKVFKSLIFHEPKPPREDLVLTGYQVDKNKDDELTGF
notes: His-tagged
B34: Clone 119 (designed binder)
chain: MIPGGLSEAKPATPEIQEIVDKVKPQLEEKTGETYGKLEAVQYKTQVDSWVFKPFYHGTNYYIKVRAGDNKYMHLKVFKSLSGPEFFSRHEDLVLTGYQVDKNKDDELTGF
notes: His-tagged
B35: Clone 196 (designed binder)
chain: MIPGGLSEAKPATPEIQEIVDKVKPQLEEKTGETYGKLEAVQYKTQVVLLWTPPYVDGTNYYIKVRAGDNKYMHLKVFKSLGWNDDHSVGEDLVLTGYQVDKNKDDELTGF
notes: His-tagged

Each binder was assayed against T1, human PD-L1-Fc (R&D Systems) (human, UniProt Q9NZQ7 19-239) (assay: soluble Affimer ELISA).
T1 construct: Bought from R&D Systems; Biotinylated in-house for the phage selection; also called huPD-L1-Fc; human PD-L1-Fc antigen; not shown: Fc part of the bought fusion
T1 sequence (Q9NZQ7 19-239 limits assumed): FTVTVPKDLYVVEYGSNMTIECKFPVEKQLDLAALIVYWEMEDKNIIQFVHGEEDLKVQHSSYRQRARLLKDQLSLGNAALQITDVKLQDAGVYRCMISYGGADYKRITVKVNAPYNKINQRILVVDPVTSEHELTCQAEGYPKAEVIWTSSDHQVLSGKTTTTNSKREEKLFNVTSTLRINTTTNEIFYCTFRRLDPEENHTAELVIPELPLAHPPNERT
B1: binds.
B2: binds.
B3: binds.
B4: binds.
B5: binds.
B6: binds.
B7: binds.
B8: binds.
B9: binds.
B10: binds.
B11: binds.
B12: binds.
B13: binds.
B14: binds.
B15: binds.
B16: binds.
B17: binds.
B18: binds.
B19: binds.
B20: binds.
B21: binds.
B22: binds.
B23: binds.
B24: binds.
B25: binds.
B26: binds.
B27: binds.
B28: binds.
B29: binds.
B30: binds.
B31: binds.
B32: binds.
B33: binds.
B34: binds.
B35: binds.
